Assay results published in US8246957 (dated 2012).

Key:
Experiment in all cases: cell-based or functional assay
[1] = biological target: T1, gp120 of HIV-1 primary isolate ZA009 (clade C) (HIV-1 strain ZA009)
[2] = biological target: gp120 of HIV-1 primary isolate Ug046 (clade D) (HIV-1 strain Ug046)
[3] = biological target: gp120 of HIV-1 primary isolate strain 23135 (clade B) (HIV-1 strain 23135)
[4] = biological target: T1, gp120 of HIV-1 primary isolate ZA009 …; remark: listed apart in the source

B1: Fv JL427 (scFv)
scFv: QSVLTQPPSVSGAPGQRVTISCSGSSSNFGLNYVTWQGHFPGTAPKLLIYRNDQRPLGVPARFSGSKSGTSASLAISGLRSEDEADYYCQSYDNSLSGWVFGGGYQLYVLGSSGGGGSGGGGSGGSAQVQLQQSGGGLVQPGRSLRLSCAASGFTFSSYGMHWVRQAPGKGLEWVSYIGRSGSHTNYADSVKGRFTISRDNSKNTLYLQINSLRAEDTAVYYCARGLPNYGMDIWGQGTTVTVSS
IC50, HIV-1 neutralization, independent preparations (N=3, mean and s.d.) [1]: 0.3 µg/mL | IC50, HIV-1 neutralization (p24, PBMC hosts) [2]: 5.5 µg Ab fragment/ml | IC90, HIV-1 neutralization (p24, PBMC hosts) [2]: 12.7 µg Ab fragment/ml | IC50, HIV-1 neutralization (p24, PBMC hosts) [3]: 22.4 µg Ab fragment/ml | IC90, HIV-1 neutralization (p24, PBMC hosts) [3]: 36.7 µg Ab fragment/ml | IC50, HIV-1 neutralization (p24, PBMC hosts) [4]: 0.3 µg Ab fragment/ml | IC90, HIV-1 neutralization (p24, PBMC hosts) [4]: 5.7 µg Ab fragment/ml
